For test [1], the target named is T1, LukS-PV (S. aureus).
T1 construct: also called Panton-Valentine leukocidin S; LukS-PV subunit of the PVL leukotoxin
T1 chain: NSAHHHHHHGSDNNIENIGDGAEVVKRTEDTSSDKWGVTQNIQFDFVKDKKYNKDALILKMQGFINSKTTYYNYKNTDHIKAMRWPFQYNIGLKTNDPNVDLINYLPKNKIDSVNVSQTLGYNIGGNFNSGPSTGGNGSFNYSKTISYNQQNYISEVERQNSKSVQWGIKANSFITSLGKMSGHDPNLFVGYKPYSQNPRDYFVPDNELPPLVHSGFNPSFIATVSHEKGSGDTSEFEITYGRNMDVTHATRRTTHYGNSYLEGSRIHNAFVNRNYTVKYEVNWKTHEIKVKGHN
As to the kind of experiment: ELISA on purified, recombinant LukS-PV. A general note: ELISA stands for enzyme-linked immunosorbent assay.

Test [2] concerns the target T2, SdgB-glycosylated recombinant SdrC4 protein (S. aureus, UniProt O86487 51-910).
T2 construct: also called SdgB-glycosylated SdrC4 protein
Nature of the test: ELISA on coated SdgB-glycosylated SdrC4.

Test [3] concerns the target T3, Protein A (Staphylococcus aureus, UniProt P38507 37-477).
T3 construct: also called S. aureus Protein A; SpA
Nature of the test: western blot of S. aureus lysates. (In general: In western blotting, separated proteins are transferred to a membrane and probed.)

The target in test [4] is human FcγRI (human, UniProt P12314 16-288). As to the kind of experiment: AlphaScreen competition against biotinylated IgG1.
Test [5] has as its target human FcγRIIIa (V158) (human, UniProt P08637 17-208). As to the kind of experiment: AlphaScreen competition against biotinylated IgG1. A general note: Bead proximity is the source of the signal in Alpha formats.

Sequence of human FcγRI (P12314 16-288 limits assumed): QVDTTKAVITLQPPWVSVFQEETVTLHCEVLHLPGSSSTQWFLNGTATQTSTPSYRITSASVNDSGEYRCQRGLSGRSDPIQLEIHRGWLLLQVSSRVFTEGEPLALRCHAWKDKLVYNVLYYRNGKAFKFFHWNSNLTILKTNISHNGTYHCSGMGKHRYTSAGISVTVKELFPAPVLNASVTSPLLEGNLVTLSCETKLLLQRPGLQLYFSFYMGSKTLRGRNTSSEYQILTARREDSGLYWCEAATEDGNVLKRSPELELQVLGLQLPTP
Sequence of human FcγRIIIa (V158) (P08637 17-208 F176V limits assumed): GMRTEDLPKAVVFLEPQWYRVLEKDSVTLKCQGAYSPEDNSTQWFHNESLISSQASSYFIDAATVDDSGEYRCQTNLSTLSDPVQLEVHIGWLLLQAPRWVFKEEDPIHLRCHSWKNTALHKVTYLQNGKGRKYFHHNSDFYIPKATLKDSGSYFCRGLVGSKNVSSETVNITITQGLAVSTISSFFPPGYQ
T2 sequence (O86487 51-910, tags left off): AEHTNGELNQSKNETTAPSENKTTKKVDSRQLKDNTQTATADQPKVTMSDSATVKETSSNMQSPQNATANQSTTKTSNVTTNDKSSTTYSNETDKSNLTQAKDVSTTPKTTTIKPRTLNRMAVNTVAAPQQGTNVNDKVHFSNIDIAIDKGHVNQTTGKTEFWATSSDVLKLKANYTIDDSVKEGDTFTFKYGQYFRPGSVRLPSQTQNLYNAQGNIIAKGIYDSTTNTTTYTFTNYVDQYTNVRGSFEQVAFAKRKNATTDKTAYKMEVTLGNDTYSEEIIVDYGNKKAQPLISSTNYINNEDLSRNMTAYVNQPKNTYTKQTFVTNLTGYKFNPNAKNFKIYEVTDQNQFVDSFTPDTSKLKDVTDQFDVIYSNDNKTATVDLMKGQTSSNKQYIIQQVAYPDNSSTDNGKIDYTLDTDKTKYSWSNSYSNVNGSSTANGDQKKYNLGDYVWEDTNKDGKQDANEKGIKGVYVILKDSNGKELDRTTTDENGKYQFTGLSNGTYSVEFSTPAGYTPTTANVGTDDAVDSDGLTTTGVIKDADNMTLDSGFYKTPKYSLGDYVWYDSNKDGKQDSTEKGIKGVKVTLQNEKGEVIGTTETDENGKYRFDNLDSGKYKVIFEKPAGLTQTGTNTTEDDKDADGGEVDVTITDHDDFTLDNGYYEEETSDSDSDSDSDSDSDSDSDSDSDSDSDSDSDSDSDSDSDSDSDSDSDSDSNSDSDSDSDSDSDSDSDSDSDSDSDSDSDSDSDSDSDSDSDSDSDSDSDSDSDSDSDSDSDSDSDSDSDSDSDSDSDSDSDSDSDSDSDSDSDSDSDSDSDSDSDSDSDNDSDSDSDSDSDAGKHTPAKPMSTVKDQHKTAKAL

B1: Luk540 (designed binder)
chain: LPAPKNLVVSRVTEDSARLSWTAPDAAFDSFHIEYPEDTEQGEAIVLTVPGSERSYDLTGLKPGTEYNVHITGVKGGSKSAPLSAIFTT
As to B1, the binding result in test [1] was “binds”.

B2: Luk647 (designed binder)
chain: LPAPKNLVVSRVTEDSARLSWTAPDAAFDSFSIYYGEWDPTGEAIVLTVPGSERSYDLTGLKPGTEYWVLIVGVKGGSTSAPLSAIFTT
With B2, the binding result in test [1] is reported as “binds”.

B3: pagibaximab (antibody, V domains shown)
VH: EVMLVESGGGLVQPKGSLKLSCAASGFTFNNYAMNWVRQAPGKGLEWVARIRSKSNNYATFYADSVKDRFTISRDDSQSMLYLQMNNLKTEDTAMYYCVRRGASGIDYAMDYWGQGTSLTVSS
VL: DIVLSQSPAILSASPGEKVTMTCRASSSVNYMHWYQQKPGSSPKPWISATSNLASGVPARFSGSGSGTSYSLTISRVEAEDAATYYCQQWSSNPPTFGGGTMLEIKR
notes: also called anti-LTA mAb
As to B3, in test [2], the binding result is “no binding (tested: starting at 10 µg/mL)”.

B4: mAb 5133 A6 (Construct 3, CR5133 A6) (antibody)
heavy: not shown
light: EIVLTQSPATLSLSPGERATLSCRASQSVSGYLGWYQQKPGQAPRLLIYGASSRATGIPDRFSGSGSGTDFTLTISRLEPEDFAVYYCQQYGSSPLTFGGGTKLEIKRTVAAPSVFIFPPSDEQLKSGTASVVCLLNNFYPREAKVQWKVDNALQSGNSQESVTEQDSKDSTYSLSSTLTLSKADYEKHKVYACEVTHQGLSSPVTKSFNRGEC
For the molecule B4, the binding result is given as “no binding (tested: 2 µg/mL)” in test [3], “binds” in test [4] and “binds” in test [5].

B5: mAb 5133 PRASA A6 (Construct 4, CR5133 PRASA A6) (antibody)
heavy: EVQLVETGGGLVKPGGSLRLSCSASRFSFRDYYMTWIRQAPGKGPEWVSHISGSGSTIYYADSVRGRFTISRDNAKSSLYLQMDSLQADDTAVYYCARGGRATSYYWVHWGPGTLVTVSSASTKGPSVFPLAPSSKSTSGGTAALGCLVKDYFPEPVTVSWNSGALTSGVHTFPAVLQSSGLYSLSSVVTVPSSSLGTQTYICNVNHKPSNTKVDKKVEPKSCDKTHTCPPCPAPPVAGPDVFLFPPKPKDTLMISRTPEVTCVVVDVSHEDPEVKFNWYVDGVEVHNAKTKPREEQYNSTYRVVSVLTVLHQDWLNGKEYKCKVSNAALPAPIAKTISKAKGQPREPQVYTLPPSRDELTKNQVSLTCLVKGFYPSDIAVEWESNGQPENNYKTTPPVLDSDGSFFLYSKLTVDKSRWQQGNVFSCSVMHEALHNRFTQKSLSLSPGK
light: EIVLTQSPATLSLSPGERATLSCRASQSVSGYLGWYQQKPGQAPRLLIYGASSRATGIPDRFSGSGSGTDFTLTISRLEPEDFAVYYCQQYGSSPLTFGGGTKLEIKRTVAAPSVFIFPPSDEQLKSGTASVVCLLNNFYPREAKVQWKVDNALQSGNSQESVTEQDSKDSTYSLSSTLTLSKADYEKHKVYACEVTHQGLSSPVTKSFNRGEC
notes: also called PRASA A6 parental mAb
As to B5, the binding result in test [3] is “no binding (tested: 2 µg/mL)”; in test [4], “no binding”; in test [5], “binds”.

The values are drawn from US20150210756A1 (NEW YORK UNIVERSITY, published 2015).
